Assay [1] concerns EBV latency C promoter (Cp-CAT). Put plainly: Cp-CAT transactivation by EBNA2 effector DNAs cotransfected in DG75 cells. Format: cell-based, Epstein-Barr virus. To be noted: for transactivation of Cp-CAT, dose-response, in words: 0-2.0 μg effector DNA, 2 μg target; for % Transactivation: relative EBNA2 transactivation of the Cp, at DNA concentrations giving 50% acetylation for wild-type EBNA2, mutations in full-length EBNA2. On the procedure:
FIGS. 4A-4B are graphs that depict μg effector versus % acetylation for transactivation in DG75 cells of a Cp-CAT construction (Ling et al. (1993b), supra) cotransfected at 2 μg with increasing amounts (i.e., 0, 0.25, 0.5, 1.0 and 2.0 μg) of the indicated EBNA2 effector DNAs. Immunoblot analysis confirmed the equivalent expression of the different EBNA2 effector constructions in transfected cells.
FIGS. 7A-7B are graphs that depict μg effector versus fold-induction for cotransfection assays comparing the ability of type A EBNA2 and type B EBNA2 to transactivate expression from Cp-CAT (FIG. 7A) and CD23p-CAT (FIG. 7B) (Ling et al. (1994), supra) in DG75 cells. The target plasmids were transfected at a constant amount (2 μg) and the effector DNAs at increasing amounts of 0, 0.25, 0.5, 1.0 and 2.0 μg.
In order to correlate the effect of the mutations on CBF1 interaction measured in the in vitro binding assays with the effects on CBF1 interaction in vivo in cultured cells, the point mutations and the glycine-arginine deletion were incorporated into full-length EBNA2 proteins which were used to study EBNA2 targeting in transactivation assays. The mutant proteins were synthesized in equal abundance in transfected cells as assessed by Western blot analysis. FIGS. 4A and 4B compare the ability of wild-type and mutant EBNA2 proteins to transactivate expression from the EBV latency C promoter in a dose-response assay (Ling et al. (1993b), supra).

In a further assay the target is T1, CBF1/RBPJk (Homo sapiens, UniProt Q06330).
T1 construct: EMSA using CBF1 purified by heparin-agarose chromatography; endogenous in cells; host or cells: CA46 cells (fractionated extract, heparin-agarose)
The assay can be described thus: EMSA of EBNA2/CBF1 complex formation with in vitro translated EBNA2 peptides. The settings on record: for effect in reducing the amounts of EBNA2/CBF1 complex formed: fold, in words. Format: binding. The text has this:
FIG. 3 is an autoradiogram that depicts the effect of mutations on the ability of an EBNA2 (i.e., E2) peptide comprising amino acids 252-425 to interact with CBF1/RBPJk: probe (lane 1); E2 only (lane 2); lysate (lane 3); CBF1 (lane 4); CBF1 and lysate (lane 5); CBF1 and E2 252-425 (lane 6); CBF1 and del376-425 (lane 7); CBF1 and del343-425 (lane 8); CBF1 and del252-366 (lane 9); CBF1 and del252-309, del398-425 (lane 10); CBF1 and del344-357 (lane 11); CBF1 and II307SR (CR5) (lane 12); CBF1 and GP320SR (CR6) (lane 13); CBF1 and WW323SR (CR6) (lane 14); CBF1 and PI326SR (CR6) (lane 15); CBF1 and SR360VD (PKC) (lane 16); and CBF1 and LGL389SRT (CR7) (lane 17). Results of an EMSA using CBF1 purified by heparin-agarose chromatography and a 30-base pair oligonucleotide probe containing the Cp CBF1 binding site (Ling et al. (1993a), supra) are shown. The wild-type EBNA2 and mutant EBNA2 peptides spanning amino acids 252-425 were in vitro transcribed and translated, and equimolar amounts were added to the binding reactions. Addition of unprogrammed reticulocyte lysate to the CBF1 extract (+lysate) produced a minor bandshift that migrated in the range of the E2/CBF1 complex. The EBNA2/CBF1 complexes (i.e., E2/CBF1 complexes) vary in mobility depending on the size of the added EBNA2 peptide.
FIG. 6 is an EMSA that compares the ability of type A EBNA2 (i.e., EBNA2 comprising amino acids 252-425) and the homologous domains of type B (i.e., EBNA2 comprising amino acids 216-392) and HVP EBNA2 (i.e., HBP EBNA2 comprising amino acids 288-470) to form complexes with CBF1/RBPJk. The EBNA2 peptides and CBF1/RPBPJk were prepared by in vitro transcription and translation. EBNA2 peptides were added with two-fold increases in amount (black triangles) to a binding mixture containing a constant amount of CBF1/RBPJk and a 30-base pair Cp CBF1 binding site probe. Symbols: P, probe only; R, reticulolysate.
The relative positions of the various functional domains the EBNA2 protein are depicted in FIG. 1. To define the amino acids required for interaction with CBF1, various synthetic peptides comprising the promoter targeting domain (i.e., the CBF1/RBPJk interaction domain) were constructed. The truncated and mutated peptides diagrammed in FIG. 2 were synthesized by in vitro transcription-translation, and were tested for their ability to form complexes with CBF1 that could be detected in an electrophoretic mobility shift assay (EMSA) (Ling et al., J. Virol., 69, 1944-1950 (1995)). The expressed peptides were tested using a fractionated extract of EBV negative lymphoblastoid CA46 cells (American Type Culture Collection, Rockville, Md.). The peptides were labeled with ^35S-methionine, and their integrity was confirmed by sodium dodecylsulfate sulfate-polyacrylamide gel electrophoresis (SDS-PAGE). To ensure that equal amounts of the EBNA2 peptides were added to each binding reaction mixture, the SDS-PAGE bands were quantitated using a Molecular Dynamics Phosphorimager, and the volume of the samples was adjusted on the basis of peptide size and the number of methionine residues.
Background: Mobility shift assays separate free from complexed probe on a gel.

Positions count from the first letter of the chain named.

T1 sequence (Q06330 whole entry): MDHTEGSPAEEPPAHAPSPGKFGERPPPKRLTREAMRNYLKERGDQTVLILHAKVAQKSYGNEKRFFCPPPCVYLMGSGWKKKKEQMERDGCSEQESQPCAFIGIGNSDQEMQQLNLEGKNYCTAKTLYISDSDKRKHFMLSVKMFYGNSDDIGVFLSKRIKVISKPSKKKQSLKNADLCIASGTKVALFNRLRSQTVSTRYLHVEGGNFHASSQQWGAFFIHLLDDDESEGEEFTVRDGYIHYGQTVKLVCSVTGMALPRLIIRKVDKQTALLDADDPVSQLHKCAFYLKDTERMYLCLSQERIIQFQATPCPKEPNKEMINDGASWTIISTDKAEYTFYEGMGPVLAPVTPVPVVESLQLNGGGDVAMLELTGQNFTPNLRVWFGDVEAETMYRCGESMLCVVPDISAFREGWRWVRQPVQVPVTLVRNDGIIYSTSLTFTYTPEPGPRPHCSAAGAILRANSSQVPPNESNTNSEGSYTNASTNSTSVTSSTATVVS

B1: SR360VD (PKC): EBNA2 with mutation of the putative PKC phosphorylation site (protein)
chain: MPTFYLALHGGQTYHLIVDTDSLGNPSLSVIPSNPYQEQLSDTPLIPLTIFVGENTGVPPPLPPPPPPPPPPPPPPPPPPPPPPPPPPSPPPPPPPPPPPQRRDAWTQEPSPLDRDPLGYDVGHGPLASAMRMLWMANYIVRQSRGDRGLILPQGPQTAPQARLVQPHVPPLRPTAPTILSPLSQPRLTPPQPLMMPPRPTPPTPLPPATLTVPPRPTRPTTLPPTPLLTVLQRPTELQPTPSPPRMHLPVLHVPDQSMHPLTHQSTPNDPDSPEPRSPTVFYNIPPMPLPPSQLPPPAAPAQPPPGVINDQQLHHLPSGPPWWPPICDPPQPSKTQGQSRGQSRGRGRGRGRGRGKGKVDDKQRKPGGPWRPEPNTSSPSMPELSPVLGLHQGQGAGDSPTPGPSNAAPVCRNSHTATPNVSPIHEPESHNSPEAPILFPDDWYPPSIDPADLDESWDYIFETTESPSSDEDYVEGPSKRPRPSIQ
In the case of B1, in assay [1], the “transactivation of Cp-CAT, dose-response, in words” value is “did not affect transactivation” and the “% Transactivation” value turned out to be 110%. The “reduction in EBNA2/CBF1 complex formation” value in the assay with CBF1/RBPJk (252-425 peptide with mutation, relative to wild-type peptide) is on record as 40%. For the same molecule, in the assay with CBF1/RBPJk, the “effect in reducing the amounts of EBNA2/CBF1 complex formed” value was “approximately two-fold”.

B2: LGL389SRT (CR7): EBNA2 with LGL at position 389 in CR7 changed to SRT (protein)
chain: B1 chain with V360S, D361R, L389S, G390R, L391T
In the case of B2, in assay [1], the “transactivation of Cp-CAT, dose-response, in words” value is “did not affect transactivation” and the “% Transactivation” value is reported as 100%. Besides, in the assay with CBF1/RBPJk, the “effect in reducing the amounts of EBNA2/CBF1 complex formed” value is recorded as “approximately two-fold”.

The values above are taken from patent US6495144B2, “EBNA2 peptides and methods of using same” (Johns Hopkins University School of Medicine, priority 1996, dated 2002).
